In the RNAGym collection of RNA variant scans (doi:10.1093/molbev/msab373):

B1: Azoarcus group I ribozyme (parent)
chain: GUGCCUUGCGCCGGGAAACCACGCAAGGGAUGGUGUCAAAUUCGGCGAAACCUAAGCGCCCGCCCGGGCGUAUGGCAACGCCGAGCCAAGCUUCGGCGCCUGCGCCGAUGAAGGUGUAGAGACUAGACGGCACCCACCUAAGGCAAACGCUAUGGUGAAGGCAUAGUCCAGGGAGUGGCGAAAGUCACACAAACCGG

Variants of: B1
Experiment: reverse-splicing fitness (ratio to wild type); higher = more active; in vitro selection; Mg2+ level not given
Outline: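 An in vitro group I ribozyme library with randomized positions was T7-transcribed and gel-purified. In triplicate, 10 pmol RNA in EPPS pH 7.5 was reacted with 50 pmoles of a 30-nt RNA substrate for 1 h at 37 °C across several added MgCl2 levels (1–48 mM), then stopped with EDTA. Products were reverse transcribed from a substrate-complementary primer, PCR-amplified and sequenced (HiSeq 4000). Fitness is a variant's read proportion after selection over that before, normalised to wild type.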

Variant	reverse-splicing fitness
GUGCCUUGCGCCGGGAAACCACGCAAGGGAUGGUGUCAAAUUCGGCGAAACCUAAGCGCCCGCCCGGGCGUAUGGCAACGCUGAGCCAAGCUUCGGCGCCUGCGCCGAUGCAGGUGUAGCGACUAGACGGCACCCACCUAAGGCUAACGUUAUGGUGAAGGCAUAGUCAAGGGAGAGGCGAAAGUCACACAAACCGG [C82U A111C A120C A145U C150U C169A U176A]	0.0117
GUGCCUUGCGCCGGGAAACCACGCAAGGGAUGGUGUCAAAUUCGGCGAAACCUAAGCGCCCGCCCGGGCGUAUGGCAACGCUGAGCCAAGCUUCGGCGCCUGCGCCGAUGCAGGUGUAGCGACUAGACGGCACCCACCUAAGGCUAACGUUAUGGUGAAGGCAUAGUCAAGGGAGCGGCGAAAGUCACACAAACCGG [C82U A111C A120C A145U C150U C169A U176C]	0.00966
GUGCCUUGCGCCGGGAAACCACGCAAGGGAUGGUGUCAAAUUCGGCGAAACCUAAGCGCCCGCCCGGGCGUAUGGCAACGCUGAGCCAAGCUUCGGCGCCUGCGCCGAUGCAGGUGUAGCGACUAGACGGCACCCACCUAAGGCUAACGUUAUGGUGAAGGCAUAGUCAAGGGAGGGGCGAAAGUCACACAAACCGG [C82U A111C A120C A145U C150U C169A U176G]	0.00665
GUGCCUUGCGCCGGGAAACCACGCAAGGGAUGGUGUCAAAUUCGGCGAAACCUAAGCGCCCGCCCGGGCGUAUGGCAACGCUGAGCCAAGCUUCGGCGCCUGCGCCGAUGCAGGUGUAGCGACUAGACGGCACCCACCUAAGGCUAACGUUAUGGUGAAGGCAUAGUCGAGGGAGUGGCGAAAGUCACACAAACCGG [C82U A111C A120C A145U C150U C169G]	0.00745
GUGCCUUGCGCCGGGAAACCACGCAAGGGAUGGUGUCAAAUUCGGCGAAACCUAAGCGCCCGCCCGGGCGUAUGGCAACGCUGAGCCAAGCUUCGGCGCCUGCGCCGAUGCAGGUGUAGCGACUAGACGGCACCCACCUAAGGCUAACGUUAUGGUGAAGGCAUAGUCUAGGGAGUGGCGAAAGUCACACAAACCGG [C82U A111C A120C A145U C150U C169U]	0.0107
GUGCCUUGCGCCGGGAAACCACGCAAGGGAUGGUGUCAAAUUCGGCGAAACCUAAGCGCCCGCCCGGGCGUAUGGCAACGCUGAGCCAAGCUUCGGCGCCUGCGCCGAUGCAGGUGUAGCGACUAGACGGCACCCACCUAAGGCUAACGUUAUGGUGAAGGCAUAGUCAAGGGAGUGGCGAAAGUCACACAAACCGG [C82U A111C A120C A145U C150U C169A]	0.00892
GUGCCUUGCGCCGGGAAACCACGCAAGGGAUGGUGUCAAAUUCGGCGAAACCUAAGCGCCCGCCCGGGCGUAUGGCAACGCUGAGCCAAGCUUCGGCGCCUGCGCCGAUGCAGGUGUAGCGACUAGACGGCACCCACCUAAGGCUAACGGUAUGGUGAAGGCAUAGUCGAGGGAGGGGCGAAAGUCACACAAACCGG [C82U A111C A120C A145U C150G C169G U176G]	0.00558
GUGCCUUGCGCCGGGAAACCACGCAAGGGAUGGUGUCAAAUUCGGCGAAACCUAAGCGCCCGCCCGGGCGUAUGGCAACGCUGAGCCAAGCUUCGGCGCCUGCGCCGAUGCAGGUGUAGCGACUAGACGGCACCCACCUAAGGCUAACGGUAUGGUGAAGGCAUAGUCGAGGGAGAGGCGAAAGUCACACAAACCGG [C82U A111C A120C A145U C150G C169G U176A]	0.00759
GUGCCUUGCGCCGGGAAACCACGCAAGGGAUGGUGUCAAAUUCGGCGAAACCUAAGCGCCCGCCCGGGCGUAUGGCAACGCUGAGCCAAGCUUCGGCGCCUGCGCCGAUGCAGGUGUAGCGACUAGACGGCACCCACCUAAGGCUAACGGUAUGGUGAAGGCAUAGUCGAGGGAGCGGCGAAAGUCACACAAACCGG [C82U A111C A120C A145U C150G C169G U176C]	0.0066
GUGCCUUGCGCCGGGAAACCACGCAAGGGAUGGUGUCAAAUUCGGCGAAACCUAAGCGCCCGCCCGGGCGUAUGGCAACGCUGAGCCAAGCUUCGGCGCCUGCGCCGAUGCAGGUGUAGCGACUAGACGGCACCCACCUAAGGCUAACGGUAUGGUGAAGGCAUAGUCGAGGGAGUGGCGAAAGUCACACAAACCGG [C82U A111C A120C A145U C150G C169G]	0.00628
GUGCCUUGCGCCGGGAAACCACGCAAGGGAUGGUGUCAAAUUCGGCGAAACCUAAGCGCCCGCCCGGGCGUAUGGCAACGCUGAGCCAAGCUUCGGCGCCUGCGCCGAUGCAGGUGUAGCGACUAGACGGCACCCACCUAAGGCUAACGGUAUGGUGAAGGCAUAGUCUAGGGAGUGGCGAAAGUCACACAAACCGG [C82U A111C A120C A145U C150G C169U]	0.00844
GUGCCUUGCGCCGGGAAACCACGCAAGGGAUGGUGUCAAAUUCGGCGAAACCUAAGCGCCCGCCCGGGCGUAUGGCAACGCUGAGCCAAGCUUCGGCGCCUGCGCCGAUGCAGGUGUAGCGACUAGACGGCACCCACCUAAGGCUAACGUUAUGGUGAAGGCAUAGUCUAGGGAGAGGCGAAAGUCACACAAACCGG [C82U A111C A120C A145U C150U C169U U176A]	0.0142
GUGCCUUGCGCCGGGAAACCACGCAAGGGAUGGUGUCAAAUUCGGCGAAACCUAAGCGCCCGCCCGGGCGUAUGGCAACGCUGAGCCAAGCUUCGGCGCCUGCGCCGAUGCAGGUGUAGCGACUAGACGGCACCCACCUAAGGCUAACGUUAUGGUGAAGGCAUAGUCUAGGGAGCGGCGAAAGUCACACAAACCGG [C82U A111C A120C A145U C150U C169U U176C]	0.0161
GUGCCUUGCGCCGGGAAACCACGCAAGGGAUGGUGUCAAAUUCGGCGAAACCUAAGCGCCCGCCCGGGCGUAUGGCAACGCUGAGCCAAGCUUCGGCGCCUGCGCCGAUGCAGGUGUAGCGACUAGACGGCACCCACCUAAGGCUAACGUUAUGGUGAAGGCAUAGUCUAGGGAGGGGCGAAAGUCACACAAACCGG [C82U A111C A120C A145U C150U C169U U176G]	0.00597
GUGCCUUGCGCCGGGAAACCACGCAAGGGAUGGUGUCAAAUUCGGCGAAACCUAAGCGCCCGCCCGGGCGUAUGGCAACGCUGAGCCAAGCUUCGGCGCCUGCGCCGAUGCAGGUGUAGCGACUAGACGGCACCCACCUAAGGCUAACGGUAUGGUGAAGGCAUAGUCUAGGGAGCGGCGAAAGUCACACAAACCGG [C82U A111C A120C A145U C150G C169U U176C]	0.0132
